The values below come from paper PMC5021521, “Coordinated recruitment of Spir actin nucleators and myosin V motors to Rab11 vesicle membranes” (eLife, 2016).

Ends that are not written are not given here. * marks the point of attachment. 5FAM = O=C1OC2(c3ccc(O)cc3Oc3cc(O)ccc32)c2ccc(C(=O)*)cc21; Ahx = NCCCCCC(=O)O

The Kd is the free concentration of one partner at which half of the binding sites on the other are occupied at equilibrium, for simple one-to-one binding.

Series [1] can be described thus: Analytical gel filtration, individual protein. In kind it is physicochemical. The conditions noted are these: Figure 5—figure supplement 2. Here is the method:
(§1) Complex formations were analyzed by analytical gel-filtration using Superdex 200 10/30 Increase column (GE Healthcare Life Sciences) and UV light absorbance at 280 nm and 260 nm and Visible light absorbance at 587 nm at flow rate of 0.75 ml/min in 50 mM Tris pH 8.0, 150 mM NaCl, 2 mM MgCl2, 2 mM TCEP buffer. Fractions of 500 µl were collected and analyzed by SDS-PAGE.
(§2) A 100 µl sample of His6-Rab11a-1-173-Q70L at 6 mg/ml, or of MyoVa-GTD at 5 mg/ml or of His6-mCherry-Spir-2-linker at 6 mg/ml were centrifuged at 10,000 x g for 10 min and injected into the column to monitor reference elution profiles of the individual proteins. The proteins were mixed pairwise to the same final concentrations and incubated 30 min at 4°C in a total volume of 100 µl. The two-component complexes (His6-mCherry-Spir-2-linker:MyoVa-GTD and MyoVa-GTD:His6-Rab11a-1-173-Q70L) were confirmed by the elution peak shifts and SDS-PAGE analysis. […] The tripartite His6-mCherry-Spir-2-linker:MyoVa-GTD:His6-Rab11a-1-173-Q70L complex was analyzed at the same concentration of the individual components and confirmed by SDS-PAGE.
A general note: Size exclusion chromatography separates by hydrodynamic size, large species first.

The test system of series [2] is Spir-2:MyoVa:Rab11 tripartite complex. The experiment in a line: Analytical gel filtration. In kind it is binding, Homo sapiens. The conditions noted are these: Superdex 200 10/30; 50 mM Tris pH 8.0, 150 mM NaCl, 2 mM MgCl2, 2 mM TCEP. The method, then: as §1, §2
Series [3] deals with T1, GST-MyoVb-GTD (human, UniProt Q9ULV0 1467-1848).
T1 construct: myosin Vb globular tail domain, human, aa 1467-1848; also called GST-hs-MyoVb-GTD; pGex-4T1-NTEV-hs-MyoVb-GTD; source: E. coli Rosetta or Rosetta (DE3) pLysS, purified (GSH-Sepharose 4B, Superdex 200)
T1 sequence (looked up): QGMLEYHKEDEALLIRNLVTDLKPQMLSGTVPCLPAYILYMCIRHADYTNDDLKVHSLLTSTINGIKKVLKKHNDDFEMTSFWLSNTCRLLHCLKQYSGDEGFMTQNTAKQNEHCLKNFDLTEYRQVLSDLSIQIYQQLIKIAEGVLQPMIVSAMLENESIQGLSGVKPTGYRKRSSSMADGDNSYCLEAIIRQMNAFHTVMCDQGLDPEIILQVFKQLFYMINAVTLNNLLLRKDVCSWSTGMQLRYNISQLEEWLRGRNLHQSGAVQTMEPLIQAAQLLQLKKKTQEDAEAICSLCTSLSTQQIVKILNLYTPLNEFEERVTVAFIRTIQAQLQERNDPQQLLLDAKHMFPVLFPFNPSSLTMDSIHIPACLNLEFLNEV
The experiment in a line: pull-down + other fluorescence titration; quantitative GST-pulldown: increasing GST-MyoVa/b-GTD on beads, 100 nM His6-mCherry-Spir-2-linker, 1x PBS with 50 mM NaCl; mCherry fluorescence left in the supernatant at 20°C; single-site fit. The following applies: both partners purified.

The next series concerns the target GST-MyoVa-GTD (mouse). Described as above.
In series [4] the target is GST-MyoVa-GTD. Kind of series: Quantitative GST-pulldown, fluorescence spectroscopy, Spir-2-linker. In kind it is binding, Mus musculus. The following applies: 100 nM His6-mCherry-Spir-2-linker (aa 361–519); SPECS buffer (1x PBS, 50 mM NaCl), 20°C; depletion of mCherry fluorescence (ex 548 nm, em 610 nm); ± SEM, n = 4 experimental repeats; read-out: dissociation constant (Kd). The method, then:
(§3) For GST-pulldown assays, 50 µg of GST-fusion protein was coupled to GSH-Sepharose 4B beads (1:1 suspension) for 1 hr at 4°C on a rotating wheel. Beads were washed twice with pulldown buffer and subsequently incubated with 20 µg His6-mCherry-fusion peptides for 2 hr, 4°C on a rotating wheel. In order to identify the tripartite Spir-2:MyoVa:Rab11a complex, 65 µg GST-Spir-2-GTBM-SB-FYVE was coupled to beads. Subsequently, beads were incubated with 40 µg MyoVa-GTD and 35 µg Rab11a-Q70L simultaneously for 2 hr. Beads were washed four times with pulldown buffer and bound proteins were eluted by 1x Laemmli buffer and denatured at 95°C for 10 min. Pulled proteins were analyzed by immunoblotting.
GST-pulldown assays were performed as described above with increasing concentrations of GST-MyoVa/b-GTD fusion proteins and 100 nM His6-mCherry-Spir-2-linker peptide in SPECS buffer (1x PBS, 50 mM NaCl). Beads were pelleted and the supernatant was centrifuged for 10 min at 20,000 x g to remove potential debris that could disturb the fluorescence measurement. […] The concentration-dependent binding of MyoVa/b-GTD to the Spir-2-linker was determined by fluorospectrometric analysis using FluoroMax-4 Spectrofluorometer (Horiba Jobin Yvon, Bensheim, Germany). The mCherry red fluorescent protein was excited at 548 nm and the emission at 610 nm was recorded (emission maximum). […]

Series [5] deals with GST-MyoVa-GTD. The experiment in a line: GST-pulldown with purified proteins. In kind it is binding, Mus musculus. The conditions noted are these: purified His6-mCherry-Spir-2-linker mutant L408A,L409A; N = 4. Here is the method: as §3
Series [6] has as its system GST-MyoVb-GTD. Kind of series: GST-pulldown with purified proteins. In kind it is binding, Homo sapiens. The following applies: purified His6-mCherry-Spir-2-linker mutant L408A,L409A; N = 4. The method, then:
as §3

Series [7] deals with T2, MyoVb-GTD (human, aa 1456-1848) (human, UniProt Q9ULV0 1456-1848).
T2 construct: myosin Vb globular tail domain, human, residues 1456-1848; Produced as in Pylypenko et al., 2013; also called hs-MyoVb-GTD; source: E. coli BL21(DE3) or BL21-CodonPlus-RILP, purified (HisTrap, rTEV, Superdex G200); not shown: His6, N-terminal, cleaved
T2 sequence (looked up): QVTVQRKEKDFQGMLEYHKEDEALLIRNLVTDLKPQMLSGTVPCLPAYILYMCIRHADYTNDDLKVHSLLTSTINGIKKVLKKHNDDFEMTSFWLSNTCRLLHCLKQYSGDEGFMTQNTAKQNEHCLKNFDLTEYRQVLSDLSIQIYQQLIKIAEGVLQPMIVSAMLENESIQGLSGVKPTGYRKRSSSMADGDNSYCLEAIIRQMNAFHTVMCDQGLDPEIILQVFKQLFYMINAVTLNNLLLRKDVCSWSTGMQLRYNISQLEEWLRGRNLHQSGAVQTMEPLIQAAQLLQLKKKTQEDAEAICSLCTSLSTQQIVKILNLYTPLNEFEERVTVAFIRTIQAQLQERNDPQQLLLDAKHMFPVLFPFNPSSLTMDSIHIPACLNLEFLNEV
Kind of series: fluorescence polarisation; fluorescence anisotropy; 1 uM fluorescein-Spir-2-401-427 titrated with MyoVa-GTD or MyoVb-GTD (50 nM-5 uM); 25°C; 100 mM Tris-HCl pH 8.0, 150 mM NaCl, 2 mM MgCl2, 2 mM TCEP, 5% glycerol. The conditions noted are these: both partners purified. For orientation: Polarisation of emitted light reports the rotation of a fluorescent probe.

Series [8] concerns the target T3, MyoVc-GTD (human, aa 1350-1742) (human, UniProt Q9NQX4 1350-1742).
T3 chain: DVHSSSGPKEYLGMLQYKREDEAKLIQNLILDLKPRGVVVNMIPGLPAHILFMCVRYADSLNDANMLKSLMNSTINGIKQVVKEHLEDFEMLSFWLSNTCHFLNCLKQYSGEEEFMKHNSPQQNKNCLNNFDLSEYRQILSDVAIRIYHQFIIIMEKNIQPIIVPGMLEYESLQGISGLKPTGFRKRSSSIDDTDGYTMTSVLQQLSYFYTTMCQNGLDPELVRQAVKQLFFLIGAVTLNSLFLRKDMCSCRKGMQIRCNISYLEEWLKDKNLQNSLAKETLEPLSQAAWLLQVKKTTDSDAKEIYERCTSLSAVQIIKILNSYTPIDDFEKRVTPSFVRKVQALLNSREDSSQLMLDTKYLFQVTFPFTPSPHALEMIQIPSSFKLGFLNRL
The experiment in a line: MST.

Series [9] concerns the target T4, MyoVc-GTD (human, aa 1350-1742) (human, UniProt Q9NQX4 1350-1742).
T4 construct: myosin Vc globular tail domain, human, residues 1350-1742; also called hs-MyoVc-GTD; source: E. coli BL21(DE3) or BL21-CodonPlus-RILP, purified (HisTrap, rTEV, Superdex 200); not shown: His6, N-terminal, cleaved
T4 sequence (looked up): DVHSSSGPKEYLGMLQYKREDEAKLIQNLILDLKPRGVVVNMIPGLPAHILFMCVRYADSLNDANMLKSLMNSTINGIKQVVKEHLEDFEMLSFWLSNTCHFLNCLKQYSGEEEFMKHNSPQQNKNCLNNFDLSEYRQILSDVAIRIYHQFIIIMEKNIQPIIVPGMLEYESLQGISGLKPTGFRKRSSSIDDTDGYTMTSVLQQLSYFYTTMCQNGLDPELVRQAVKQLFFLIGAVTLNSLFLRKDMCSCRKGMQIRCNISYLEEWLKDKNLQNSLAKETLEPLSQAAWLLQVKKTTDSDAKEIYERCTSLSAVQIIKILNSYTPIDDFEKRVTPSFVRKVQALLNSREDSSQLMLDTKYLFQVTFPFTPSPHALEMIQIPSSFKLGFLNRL
Kind of series: MST; 500 nM fluorescein-Spir-2 peptide, MyoVc-GTD 97 uM to 2.96 nM; 21.5°C; 50 mM Tris pH 8.0, 250 mM NaCl, 2 mM MgCl2, 2 mM TCEP, 5% glycerol. The following applies: both partners purified.

B1: MyoVa-GTD: purified hs-MyoVa-GTD aa 1461 - 1853; in Figure 3E the label stands for AcGFP-mm-MyoVa-GTD donor alone (protein)
chain: IRPVNIPRKEKDFQGMLEYKKEDEQKLVKNLILELKPRGVAVNLIPGLPAYILFMCVRHADYLNDDQKVRSLLTSTINSIKKVLKKRGDDFETVSFWLSNTCRFLHCLKQYSGEEGFMKHNTSRQNEHCLTNFDLAEYRQVLSDLAIQIYQQLVRVLENILQPMIVSGMLEHETIQGVSGVKPTGLRKRTSSIADEGTYTLDSILRQLNSFHSVMCQHGMDPELIKQVVKQMFYIIGAITLNNLLLRKDMCSWSKGMQIRYNVSQLEEWLRDKNLMNSGAKETLEPLIQAAQLLQVKKKTDDDAEAICSMCNALTTAQIVKVLNLYTPVNEFEERVSVSFIRTIQMRLRDRKDSPQLLMDAKHIFPVTFPFNPSSLALETIQIPASLGLGFIS
modifications: left off: His6, N-terminal, cleaved
Consider B1, for which the “oligomeric state in solution” value in [1] is reported as “monomeric in solution”. In addition, in series [2], the “co-elution in gel filtration in words” value was “co-elution of all three proteins”.

B2: His6-mCherry-Spir-2-linker (domain or fragment, human, UniProt Q8WWL2 361-519, looked up)
chain: GEGWAARGFGSLPCILNACSGDAKSTSCINLSVTDAGGSAQRPRPRVLLKAPTLAEMEEMNTSEEEESPCGEVTLKRDRSFSEHDLAQLRSEVASGLQSATHPPGGTEPPRPRAGSAHVWRPGSRDQGTCPASVSDPSHPLLSNRGSSGDRPEASMTPD
notes: Spir-2 central linker region, human, aa 361-519; also called His-mCherry-Spir2-linker; His6-mCherry-hs-Spir2-linker; source: E. coli (Rosetta or Rosetta (DE3) pLysS; BL21(DE3)), purified (Ni-NTA, Superdex 200); not shown: His6, N-terminal, kept; mCherry, N-terminal, kept
For B2, the values for the Kd in the series with GST-MyoVb-GTD [3] and with GST-MyoVa-GTD (mouse) were ~377 nM and 728 nM, respectively.

B3: mCherry-Spir2-linker: His6-mCherry-hs-Spir2-linker aa 361 - 519 (protein)
chain: GEGWAARGFGSLPCILNACSGDAKSTSCINLSVTDAGGSAQRPRPRVLLKAPTLAEMEEMNTSEEEESPCGEVTLKRDRSFSEHDLAQLRSEVASGLQSATHPPGGTEPPRPRAGSAHVWRPGSRDQGTCPASVSDPSHPLLSNRGSSGDRPEASMTPD
modifications: left off: His6, N-terminal, kept | mCherry, N-terminal, kept
As for B3, on GST-MyoVa-GTD [4], the Kd worked out at 728 ± 113 nM. Moreover, the “co-elution in gel filtration in words” value in series [2] is “co-elution of all three proteins”.

B4: Spir-2-linker-LALA: His6-mCherry-hs-Spir2-linker-L408A,L409A (protein)
chain: GEGWAARGFGSLPCILNACSGDAKSTSCINLSVTDAGGSAQRPRPRVAAKAPTLAEMEEMNTSEEEESPCGEVTLKRDRSFSEHDLAQLRSEVASGLQSATHPPGGTEPPRPRAGSAHVWRPGSRDQGTCPASVSDPSHPLLSNRGSSGDRPEASMTPD
modifications: left off: His6, N-terminal, kept | mCherry, N-terminal, kept
notes: His6-mCherry-hs-Spir2-linker-L408A,L409A
In the case of B4, the “binding to GST-MyoVa-GTD in words” value in the series with GST-MyoVa-GTD [5] is “largely impairs binding”. In the series on GST-MyoVb-GTD [6], the “binding to GST-MyoVb-GTD in words” value is given as “largely impairs binding”.

B5: Fluorescein-Spir-2-GTBM peptide (peptide)
peptide: {5FAM-Ahx}-QRPRPRVLLKAPTLAEMEEMNTSEEEE
notes: also called Fluorescein-Spir2 peptide; fluorescein labeled Spir-2-401-427 peptide; source: synthetic peptide, bought: GenScript
On to B5, for which the binding result in series [7] and in [9] was “binds” in each case. In addition, the Kd in [8] worked out at 2880 nM.
